Test results taken from patent publication US20240317849A1.

Molecular target: recombinant human NPR3 protein, extracellular domain amino acids Gly27-Ser482 fused to the Fc portion of mouse IgG2a at the NPR3 C-terminus (human; mouse) (UniProt P17342)
Experiment: ELISA-based blocking assay on coated hNPR3-mFc, competitor biotin-hANP 200 pM; categorized as a non-blocker

Chain of UniProt P17342 (P17342 27-482 limits assumed): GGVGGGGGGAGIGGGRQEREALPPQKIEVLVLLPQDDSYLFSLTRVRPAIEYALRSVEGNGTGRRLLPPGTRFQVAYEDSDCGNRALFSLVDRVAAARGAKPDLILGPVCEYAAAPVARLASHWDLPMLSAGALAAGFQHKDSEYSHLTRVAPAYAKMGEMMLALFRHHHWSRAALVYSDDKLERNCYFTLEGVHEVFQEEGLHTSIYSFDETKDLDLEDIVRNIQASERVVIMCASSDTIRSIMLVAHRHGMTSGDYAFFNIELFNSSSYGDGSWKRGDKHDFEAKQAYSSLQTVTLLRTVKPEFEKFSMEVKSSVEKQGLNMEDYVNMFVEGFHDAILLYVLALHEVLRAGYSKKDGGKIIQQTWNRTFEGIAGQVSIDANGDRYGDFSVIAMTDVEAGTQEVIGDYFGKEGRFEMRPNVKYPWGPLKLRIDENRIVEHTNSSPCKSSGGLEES

non-binding human IgG1 isotype control antibody (ELISA blocking assay)
percent blockade: 32%
